Reference: patent publication US20260028422A1 (CONCEPT TO MEDICINE BIOTECH, published 2026)

Tests used:
cyno MerTK-his protein = molecular target: T1, cyno MerTK-his protein (cynomolgus, UniProt A0A2K5V1H9 27-505); test: ELISA, coated cyno MerTK-his
T1 construct: also called cyno MerTK protein; Cynomolgus
T1 sequence: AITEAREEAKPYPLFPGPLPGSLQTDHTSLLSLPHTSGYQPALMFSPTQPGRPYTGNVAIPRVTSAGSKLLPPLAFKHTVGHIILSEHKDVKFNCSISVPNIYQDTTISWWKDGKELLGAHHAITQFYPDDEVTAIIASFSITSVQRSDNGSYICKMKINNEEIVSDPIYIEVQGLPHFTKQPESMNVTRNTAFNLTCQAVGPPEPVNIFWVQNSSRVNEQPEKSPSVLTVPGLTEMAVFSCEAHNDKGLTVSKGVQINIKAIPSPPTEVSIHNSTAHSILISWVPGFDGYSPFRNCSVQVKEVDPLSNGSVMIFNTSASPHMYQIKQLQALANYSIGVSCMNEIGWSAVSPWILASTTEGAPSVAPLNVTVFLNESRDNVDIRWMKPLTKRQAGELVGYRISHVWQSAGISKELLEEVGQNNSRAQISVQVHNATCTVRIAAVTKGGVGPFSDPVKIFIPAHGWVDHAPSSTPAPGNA
Description: (§1) To evaluate the binding activity, the chimeric mAbs were subjected to ELISA test. Briefly, 96-well plates were coated with human or cyno MerTK-his protein at 2 μg/mL in PBS, 100 μL/well at 4° C. overnight, then blocked with 150 μL/well of 1% BSA. Five-fold dilutions of MerTK antibodies starting from 20 nM were added to each well and incubated for 1 hour at room temperature. The plates were washed with PBS/Tween-20 and then incubated with goat anti-human IgG Fe antibody conjugated with Horse Radish Peroxidase (HRP) for 30 minutes (mins) at room temperature. After washing, the plates were developed with TMB substrate and subsequent stop solution was added to complete the reaction. The signal from each well was read by spectrophotometer at OD 450 nm.

[1] = molecular target: T2, human MerTK expressed on cells (human, UniProt Q12866 21-999); test: FACS on SK-MEL-5 cells expressing human MerTK, geometric mean
T2 construct: whole, on cells; also called CHO-K1-hMerTK; CHO-K1-MerTK
T2 sequence (looked up): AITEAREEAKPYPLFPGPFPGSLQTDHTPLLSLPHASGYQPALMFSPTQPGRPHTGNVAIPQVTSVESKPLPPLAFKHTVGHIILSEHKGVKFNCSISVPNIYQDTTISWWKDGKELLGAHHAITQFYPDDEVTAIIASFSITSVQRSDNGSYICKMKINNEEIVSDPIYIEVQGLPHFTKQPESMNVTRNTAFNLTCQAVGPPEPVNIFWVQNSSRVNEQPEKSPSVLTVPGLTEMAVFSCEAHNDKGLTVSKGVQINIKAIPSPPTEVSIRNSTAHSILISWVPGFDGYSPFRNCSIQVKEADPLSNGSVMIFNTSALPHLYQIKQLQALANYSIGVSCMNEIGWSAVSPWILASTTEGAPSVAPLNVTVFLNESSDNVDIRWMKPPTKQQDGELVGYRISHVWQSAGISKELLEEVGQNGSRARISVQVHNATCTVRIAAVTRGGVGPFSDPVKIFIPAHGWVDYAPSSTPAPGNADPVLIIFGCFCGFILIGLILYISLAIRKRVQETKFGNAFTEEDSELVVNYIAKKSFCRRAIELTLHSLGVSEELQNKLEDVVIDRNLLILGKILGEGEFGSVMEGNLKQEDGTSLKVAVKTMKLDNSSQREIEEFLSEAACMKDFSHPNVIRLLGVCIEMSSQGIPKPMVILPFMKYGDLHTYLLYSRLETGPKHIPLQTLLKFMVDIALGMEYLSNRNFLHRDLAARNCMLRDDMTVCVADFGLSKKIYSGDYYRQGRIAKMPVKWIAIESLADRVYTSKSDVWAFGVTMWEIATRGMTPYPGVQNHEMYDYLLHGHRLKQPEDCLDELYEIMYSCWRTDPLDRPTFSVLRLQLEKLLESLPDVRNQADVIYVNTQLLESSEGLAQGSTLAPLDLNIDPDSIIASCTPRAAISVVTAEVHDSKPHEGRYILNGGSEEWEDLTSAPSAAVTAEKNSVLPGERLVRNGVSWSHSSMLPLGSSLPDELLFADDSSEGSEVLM
Description: To evaluate the binding properties on MerTK expressed on cells, the chimeric monoclonal antibodies were analyzed for their binding to human melanoma cell line SK-MEL-5 expressing MerTK by FACS analysis. Briefly, SK-MEL-5 cells were firstly incubated with 5-fold serially diluted chimeric mAbs starting at 20 nM at 4° C. for 30 mins. After washing by FACS buffer, the PE conjugated anti-human IgG secondary antibody was incubated with the cell-antibody complex in the wells at 4° C. for 30 mins to detect the antibodies those bound to the cells. The MFI of PE was evaluated by QuantAnalyzer 16.

human MerTK-his protein = molecular target: T3, human MerTK-his protein (human, UniProt Q12866 21-505); test: ELISA, coated human MerTK-his
T3 construct: extracellular domain; also called hMerTK-His; human MerTK protein
T3 sequence (looked up): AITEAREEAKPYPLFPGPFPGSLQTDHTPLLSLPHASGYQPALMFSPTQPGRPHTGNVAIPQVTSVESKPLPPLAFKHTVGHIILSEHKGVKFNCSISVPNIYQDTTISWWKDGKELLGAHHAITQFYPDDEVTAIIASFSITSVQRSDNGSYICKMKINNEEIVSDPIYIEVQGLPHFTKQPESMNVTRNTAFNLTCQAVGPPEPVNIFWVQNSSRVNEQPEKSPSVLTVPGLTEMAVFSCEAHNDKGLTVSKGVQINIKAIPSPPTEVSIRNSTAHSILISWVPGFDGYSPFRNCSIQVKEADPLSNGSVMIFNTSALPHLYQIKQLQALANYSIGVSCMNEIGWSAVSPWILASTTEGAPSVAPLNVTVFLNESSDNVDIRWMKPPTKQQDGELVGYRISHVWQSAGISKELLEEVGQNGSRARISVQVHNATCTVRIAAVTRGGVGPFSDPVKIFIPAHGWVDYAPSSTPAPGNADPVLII
Description: as §1

EC50 (cyno MerTK-his protein): 0.15 nM | EC50 [1]: 0.053 nM | Top [1]: 4790 Geometric Mean | EC50 (human MerTK-his protein): 0.052 nM
B1: 252H9D5 chimeric monoclonal antibody (antibody, V domains shown)
VH: QVTLRESGPGILQPSQTLSLTCSFSGFSLNTFGMGVGWIRQSSGKGLKWLAHIWWDDDKFYNPALKSRLTISKDTSKNQVFLKIANVDTTDTATYYCARIEGGLPYYYDYWGQGTPLIVSS
VL: DIVMTQSQKIMSTSVGDRISVTCKASQIVGTNVVWYQQKPGQSPKALIYSTSYRYSGVPDRFTGSRSGTDFTLTISNVQSEDLANYFCQQYNSYPFTFGSGTKLEIK
